Earlier results as cited in article PMC3057930.

Target: CaMKIIp (UniProt Q9UQM7)
Sequence (Q9UQM7 293-312): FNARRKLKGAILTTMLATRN

Kd: 950 nM
Substance: (Ca2+)2-CaM76-148 76-148 (from UniProt P0DP29)
